{"source": "IntAct's records for PubMed 17412836", "parents": {"B1": {"name": "Protein Nef (Human immunodeficiency virus type 1 group M subtype B (isolate Lai)), Q9QPN3 (parent)", "chain": "MGGKWSKSSVVGWPAVRERMRRAEPAADGVGAVSRDLEKHGAITSSNTAATNADCAWLEAQEEEEVGFPVTPQVPLRPMTYKAAVDLSHFLKEKGGLEGLIHSQRRQDILDLWIYHTQGYFPDWQNYTPEPGVRYPLTFGWCYKLVPVEPDKVEEANKGENTRLLHPVSLHGMDDPEREVLEWRFDSRLAFHHVARELHPEY", "partner": "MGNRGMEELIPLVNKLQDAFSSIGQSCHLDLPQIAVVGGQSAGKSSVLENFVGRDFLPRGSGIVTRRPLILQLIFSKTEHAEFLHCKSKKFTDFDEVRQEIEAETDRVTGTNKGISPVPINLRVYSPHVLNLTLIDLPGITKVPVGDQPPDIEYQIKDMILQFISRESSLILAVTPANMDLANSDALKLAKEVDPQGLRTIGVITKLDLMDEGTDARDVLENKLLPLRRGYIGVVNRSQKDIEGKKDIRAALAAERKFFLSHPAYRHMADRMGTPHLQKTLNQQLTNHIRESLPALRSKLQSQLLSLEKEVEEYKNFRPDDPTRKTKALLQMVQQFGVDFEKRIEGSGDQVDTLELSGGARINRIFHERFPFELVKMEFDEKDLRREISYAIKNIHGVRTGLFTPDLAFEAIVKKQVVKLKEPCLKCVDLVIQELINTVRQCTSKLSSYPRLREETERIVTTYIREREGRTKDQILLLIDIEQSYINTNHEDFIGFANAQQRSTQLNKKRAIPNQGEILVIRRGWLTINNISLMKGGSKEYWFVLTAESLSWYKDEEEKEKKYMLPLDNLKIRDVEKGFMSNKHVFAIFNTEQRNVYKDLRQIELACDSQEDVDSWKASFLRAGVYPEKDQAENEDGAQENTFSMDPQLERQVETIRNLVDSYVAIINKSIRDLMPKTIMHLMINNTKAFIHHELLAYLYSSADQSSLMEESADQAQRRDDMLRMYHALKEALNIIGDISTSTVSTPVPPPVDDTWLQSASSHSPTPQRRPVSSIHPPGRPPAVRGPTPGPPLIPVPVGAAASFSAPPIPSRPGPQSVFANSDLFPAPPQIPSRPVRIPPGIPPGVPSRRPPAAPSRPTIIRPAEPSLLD"}}}
{"variants_of": "B1", "settings": "with dyn2_human DNM2, P50570"}
{"variant": "D123A", "effect of a mutation on the interaction": "decreasing interaction strength"}
{"variant": "G2A;G3A", "effect of a mutation on the interaction": "disrupting interaction strength"}
{"variant": "F121A;D123A", "effect of a mutation on the interaction": "disrupting interaction strength"}
{"variant": "F121A", "effect of a mutation on the interaction": "decreasing interaction strength"}
{"variant": "L112A", "effect of a mutation on the interaction": "decreasing interaction strength"}
